The target in this experiment is T1, human iRhom1 (Homo sapiens, UniProt Q96CC6).
T1 construct: expressed in transfected cells; host or cells: immortalized iRhom1/2-/- DKO mouse embryonic fibroblasts, pMSCV retroviral infection
T1 sequence (Q96CC6 1-855): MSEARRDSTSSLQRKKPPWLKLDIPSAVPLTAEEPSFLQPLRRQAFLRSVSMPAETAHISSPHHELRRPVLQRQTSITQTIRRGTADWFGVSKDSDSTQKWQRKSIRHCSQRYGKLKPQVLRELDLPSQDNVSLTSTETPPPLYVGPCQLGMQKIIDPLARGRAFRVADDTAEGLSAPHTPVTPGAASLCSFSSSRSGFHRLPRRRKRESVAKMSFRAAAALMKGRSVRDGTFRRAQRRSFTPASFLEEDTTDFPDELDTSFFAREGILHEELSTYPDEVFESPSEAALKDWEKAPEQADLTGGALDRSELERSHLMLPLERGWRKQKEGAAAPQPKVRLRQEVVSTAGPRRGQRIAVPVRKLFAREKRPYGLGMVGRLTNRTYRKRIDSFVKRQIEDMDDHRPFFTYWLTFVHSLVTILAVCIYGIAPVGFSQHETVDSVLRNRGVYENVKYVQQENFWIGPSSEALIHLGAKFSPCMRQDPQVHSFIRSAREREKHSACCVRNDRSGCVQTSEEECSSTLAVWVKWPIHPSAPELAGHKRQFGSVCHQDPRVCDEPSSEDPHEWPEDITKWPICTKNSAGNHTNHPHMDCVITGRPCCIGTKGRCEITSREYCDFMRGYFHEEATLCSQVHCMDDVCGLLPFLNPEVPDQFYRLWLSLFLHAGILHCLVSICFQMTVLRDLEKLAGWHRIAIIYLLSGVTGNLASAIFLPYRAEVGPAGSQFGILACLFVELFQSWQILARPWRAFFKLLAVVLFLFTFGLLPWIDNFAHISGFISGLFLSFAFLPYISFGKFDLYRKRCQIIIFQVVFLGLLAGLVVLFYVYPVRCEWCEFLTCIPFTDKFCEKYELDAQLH
Kind of experiment: FACS binding specificity on MEF-DKO-hiR1-FL-WT-T7 cells. The settings on record: antibody at 3 μg/ml. On the procedure:
Due to the sequence homology of the human iRhom2 protein versus its closely related family member human iRhom1 (referring to the NCBI reference sequence NP_078875.4. for human iRhom2 and the NCBI reference sequence NP_071895.3 for human iRhom1, the amino acid sequence identity for the extracellular loops 1, 2, 3 and the C-terminal tail of human iRhom2 versus human iRhom1 are calculated as 67.4%, 100.00%, 80.00% and 63.64%, respectively), the binding specificity of the humanized antibodies 16-B-03, 16-B-05, 16-B-07, 23-B-04, 42-B-02, 42-B-04 of the invention for human iRhom2 versus human iRhom1 was assessed as a next step. For this purpose, iRhom1/2−/− DKO MEFs stably expressing a tagged form of human iRhom1 were generated.
In brief, on day 1, Phoenix-ECO cells (American Type Culture Collection, USA) were seeded on 6-well tissue culture plates (Greiner, Germany) in standard growth medium at 8×10^5 cells per well and kept overnight at 37° C., 5% CO2. On day 2, the medium was replaced by fresh medium supplemented with chloroquine (Sigma-Aldrich, USA) at a final concentration of 25 μM. Applying the calcium phosphate method, cells were transfected with 2 μg/ml of pMSCV-hiR1-FL-WT-T7 (SEQ ID NO 50) encoding human iRhom1 full length wild type C-terminally tagged with 3 consecutive copies of the T7 epitope, and were kept at 37° C., 5% CO2. After 7 hours, the transfections were stopped by replacing cell supernatants with standard growth medium lacking chloroquine, and cells were incubated at 37° C., 5% CO2 to allow virus production overnight. In parallel, immortalized iRhom1/2−/− DKO MEFs as target cells for retroviral infection were seeded on 6-well tissue culture plates (Greiner, Germany) in standard growth medium at 1×10^5 cells per well and were also kept overnight at 37° C., 5% CO2. On day 3, the supernatants of Phoenix-ECO cells releasing pMSCV-hiR1-FL-WT-T7 ecotrophic virus were collected, filtered with 0.45 μm CA filters, and supplemented with 4 μg/ml of polybrene (Sigma-Aldrich, USA). Upon removal of medium from the immortalized iRhom1/2−/− DKO MEFs, these supernatants were added to the target cells for 4 hours at 37° C., 5% CO2 for first infection. Simultaneously, Phoenix-ECO cells were re-incubated with fresh medium, which, after another 4 hours, was filtered and used for the second infection of the respective target cell populations, again in the presence of 4 μg/ml of polybrene. Likewise, a third, but overnight infection cycle was performed. On day 4, virus containing cell supernatants were replaced by fresh standard growth medium. From day 5 onwards, cells were grown in the presence of 2 mg/ml of geneticin (G418, Thermo Fisher Scientific, USA) for the selection of immortalized MEF-DKO-hiR1-FL-WT-T7 cells stably expressing human iRhom1 full length wild type C-terminally tagged with 3 consecutive copies of the T7 epitope. Upon propagation, cells were stocked for future usage.
In brief, in addition to immortalized MEF-DKO-EV control cells and MEF-DKO-hiR2-FL-WT-T7 cells (as already described in example 3), MEF-DKO-hiR1-FL-WT-T7 cells were harvested with 10 mM EDTA in PBS, washed and resuspended in FACS buffer (PBS, 3% FBS, 0.05% sodium azide), and seeded in Nunc U-bottom 96-well plates (Thermo Fisher Scientific, USA) at approximately 3×10^5 cells per well. To pellet cells and remove supernatants, the plates were centrifuged at 1,500 rpm and 4° C. for 3 minutes. For primary staining, cells were resuspended in 100 μl per well of either FACS buffer alone (controls), mouse monoclonal anti-T7 IgG (Merck Millipore, USA) at 3 μg/ml FACS buffer or the humanized antibodies 16-B-03, 16-B-05, 16-B-07, 23-B-04, 42-B-02, 42-B-04 of the invention also at 3 μg/ml FACS buffer and incubated on ice for 1 hour. Afterwards, plates were centrifuged at 1,500 rpm and 4° C. for 3 minutes and washed twice with 200 μl per well of FACS buffer. […]

Here are results for 6 molecules from patent US12404345B2, “Humanized antibodies against iRHOM2” (SCIRHOM GMBH, priority 2021, dated 2025).

Substitutions are numbered along the chain they refer to.

B1: 16-B-03: humanized antibody binding human iRhom2; HCVD SEQ ID NO 1, LCVD SEQ ID NO 5 (antibody, V domains shown)
VH: QVTLRESGPALVKPTQTLTLTCTFSGFSLSTFALGVGWIRQPPGKALEWLAHIWWDDDKYYNPALKSRLTISKDTSKNQVVLTITNMDPVDTATYYCARITTYYYGMDYWGQGTLVTVSS
VL: EIVMTQSPDFQSVTPKEKVTITCRASQSIGNHLHWYQQKPDASPKLLIKYASQSISGVPSRFSGSGSGTDFTLTINSLEAEDAATYFCQQSYQWPLTFGQGTKLEIK
modifications: antibody sequences
Regarding B1, the “binding to human iRhom1 on MEF-DKO-hiR1-FL-WT-T7 cells” value (“binding to human iRhom1” for short) was “no significant binding”.

B2: 16-B-05: humanized antibody binding human iRhom2; HCVD SEQ ID NO 9, LCVD SEQ ID NO 13 (antibody, V domains shown)
VH: B1 VH with D57E
VL: B1 VL with Q93N
modifications: antibody sequences
As for B2, the “binding to human iRhom1” value is “none of these humanized antibodies of the invention recognizes human iRhom1”.

B3: 16-B-07: humanized antibody binding human iRhom2; HCVD SEQ ID NO 17, LCVD SEQ ID NO 21 (antibody, V domains shown)
VH: B1 VH with D57E
VL: B1 VL
modifications: antibody sequences
Regarding B3, the “binding to human iRhom1” value is given as “none of these humanized antibodies of the invention recognizes human iRhom1”.

B4: 23-B-04: humanized antibody binding human iRhom2; HCVD SEQ ID NO 25, LCVD SEQ ID NO 29 (antibody, V domains shown)
VH: QVTLRESGPALVKPTQTLTLTCTFSGFSLSTFGMGVGWIRQPPGKALEWLAHIWWDDEKYYNSALKSRLTISKDTSKNQVVLTITNMDPVDTATYYCARISNYGSNYWYFNVWGQGTLVTVSS
VL: AIQLTQSPSSLSASVGDRVTITCRASSSVSYMYWYQQKPGKAPKVLIYDTSNLASGVPSRFSGSGSGTDYTLTISSLQPEDFATYYCQQWNAYPLTFGQGTKLEIK
modifications: antibody sequences
For the molecule B4, the “binding to human iRhom1” value is “none of these humanized antibodies of the invention recognizes human iRhom1”.

B5: 42-B-02: humanized antibody binding human iRhom2; HCVD SEQ ID NO 33, LCVD SEQ ID NO 37 (antibody, V domains shown)
VH: B4 VH with M34R, S101Q, N111D
VL: B4 VL with S28R, V29I, Y33F, A92S
modifications: antibody sequences
As to B5, the “binding to human iRhom1” value is recorded as “none of these humanized antibodies of the invention recognizes human iRhom1”.

B6: 42-B-04: humanized antibody binding human iRhom2; HCVD SEQ ID NO 41, LCVD SEQ ID NO 45 (antibody, V domains shown)
VH: B4 VH with M34R, S101Q, N111D
VL: B4 VL with S28R, V29I, Y33F
modifications: antibody sequences
For the molecule B6, the “binding to human iRhom1” value is reported as “none of these humanized antibodies of the invention recognizes human iRhom1”.
